From US20220040297A1

Assays:
[1] = molecular target: CD3ε homodimer protein (human) (UniProt P07766); experiment: SPR, CD3e immobilized
[2] = molecular target: CD3ε homodimer protein (human) (UniProt P07766); experiment: SPR, immobilized CD3ε homodimer
[3] = molecular target: CD3ε homodimer protein (human) (UniProt P07766); experiment: SPR, CD3ε homodimer on chip

Chain of CD3ε homodimer protein (human) (P07766 23-126 limits assumed): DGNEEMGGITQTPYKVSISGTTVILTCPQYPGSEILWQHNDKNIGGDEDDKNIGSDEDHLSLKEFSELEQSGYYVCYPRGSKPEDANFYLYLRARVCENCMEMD

Binder	KD ratio to GLS3000 [1]	ratio of amounts bound (vs GLS3000) [2]	ratio of amounts bound vs CE115HA000 [3]
CE115HA000 V95E (antibody, name in Kabat numbering, V domains shown) VH: QVQLVESGGGVVQPGRSLRLSCAASGFTFSNAWMHWVRQAPGKGLEWVAQIKAKSNNYATYYAESVKGRFTISRDDSKNSLYLQMNSLKTEDTAVYYCRYEHYGAYYGVDAWGQGTTVTVSS VL: DIVMTQSPLSLPVTPGEPASISCRSSQSLVHSNRNTYLHWYQQKPGQAPRLLIYKVSNRFSGVPDRFSGSGSGTDFTLKISRVEAEDVGVYYCGQGTQVPYTFGQGTKLEIK	–	–	9.24
CE115HA000 D101R (antibody, name in Kabat numbering, V domains shown) VH: QVQLVESGGGVVQPGRSLRLSCAASGFTFSNAWMHWVRQAPGKGLEWVAQIKAKSNNYATYYAESVKGRFTISRDDSKNSLYLQMNSLKTEDTAVYYCRYVHYGAYYGVRAWGQGTTVTVSS VL: DIVMTQSPLSLPVTPGEPASISCRSSQSLVHSNRNTYLHWYQQKPGQAPRLLIYKVSNRFSGVPDRFSGSGSGTDFTLKISRVEAEDVGVYYCGQGTQVPYTFGQGTKLEIK	–	–	9.24

Now from value to binder:

KD ratio to GLS3000 [1]	ratio of amounts bound (vs GLS3000) [2]	ratio of amounts bound vs CE115HA000 [3]	Binder
3.43	0.03	–	GLS3000 H27dM (antibody, IgG1, name in Kabat numbering, V domains shown) VH: QVQLVESGGGVVQPGRSLRLSCAASGFTFSNAWMHWVRQAPGKGLEWVAQIKAKSNNYATYYAESVKGRFTISRDDSKNSLYLQMNSLKTEDTAVYYCRYVHYGAYYGVDAWGQGTTVTVSS VL: DIVMTQSPLSLPVTPGEPASISCRSSQSLVMSNRNTYLHWYQQKPGQAPRLLIYKVSNRFSGVPDRFSGSGSGTDFTLKISRVEAEDVGVYYCGQGTQVPYTFGQGTKLEIK
13600	–	–	GLS3000 H27dD (antibody, IgG1, name in Kabat numbering, V domains shown) VH: QVQLVESGGGVVQPGRSLRLSCAASGFTFSNAWMHWVRQAPGKGLEWVAQIKAKSNNYATYYAESVKGRFTISRDDSKNSLYLQMNSLKTEDTAVYYCRYVHYGAYYGVDAWGQGTTVTVSS VL: DIVMTQSPLSLPVTPGEPASISCRSSQSLVDSNRNTYLHWYQQKPGQAPRLLIYKVSNRFSGVPDRFSGSGSGTDFTLKISRVEAEDVGVYYCGQGTQVPYTFGQGTKLEIK
–	–	9.27	CE115HA000 Y97R (antibody, name in Kabat numbering, V domains shown) VH: QVQLVESGGGVVQPGRSLRLSCAASGFTFSNAWMHWVRQAPGKGLEWVAQIKAKSNNYATYYAESVKGRFTISRDDSKNSLYLQMNSLKTEDTAVYYCRYVHRGAYYGVDAWGQGTTVTVSS VL: DIVMTQSPLSLPVTPGEPASISCRSSQSLVHSNRNTYLHWYQQKPGQAPRLLIYKVSNRFSGVPDRFSGSGSGTDFTLKISRVEAEDVGVYYCGQGTQVPYTFGQGTKLEIK
–	–	9.28	CE115HA000 Y97S (antibody, name in Kabat numbering, V domains shown) VH: QVQLVESGGGVVQPGRSLRLSCAASGFTFSNAWMHWVRQAPGKGLEWVAQIKAKSNNYATYYAESVKGRFTISRDDSKNSLYLQMNSLKTEDTAVYYCRYVHSGAYYGVDAWGQGTTVTVSS VL: DIVMTQSPLSLPVTPGEPASISCRSSQSLVHSNRNTYLHWYQQKPGQAPRLLIYKVSNRFSGVPDRFSGSGSGTDFTLKISRVEAEDVGVYYCGQGTQVPYTFGQGTKLEIK
